The record followed here is patent US20260152753.

The data set deals with κ-casein (in skim milk).

For the substance “PEP4 aspartyl protease of the Pichia pastoris host cell”, the “SDS electrophoresis after 24 hours at 5 °C, 0.5% b-lactoglobulin from a pep4-containing host, heated and unheated” value was “the k-casein peak in both the heated and unheated samples had markedly reduced in size and a peak in the position expected for para-k-casein was present”; the “SDS-PAGE of heated skim milk with B-lac from a pep4-containing host: κ-casein band and para-κ-casein band” value is “the band intensity of the k-casein band decreased and a peptide band consistent with that of para-k-casein appeared”; the “SDS-PAGE of unheated skim milk with B-lac from a pep4-containing host: κ-casein band and para-κ-casein band” value is “the band intensity of the k-casein band decreased and a peptide band consistent with that of para-k-casein appeared”; the “lab-on-a-chip para-κ-casein peak area 24 h after 80 °C/30 min treatment, sample B-lac 1A (start: 0)” value is “After 24 hours, the peak area was 115.2 and 35.82 for κ-casein and para-κ-casein, respectively”. Besides, the “lab-on-a-chip para-κ-casein peak area 24 h after 120 °C/10 min treatment, sample B-lac 1A (start: 0)” value is “After 24 hours, the peak area was 179.4 and 16.12 for κ-casein and para-κ-casein, respectively”; the lab-on-a-chip peak area of para-κ-casein formed at 24 h at 5 °C, sample B-lac 1A (0 h: 0) stood at 147 peak area; the lab-on-a-chip peak area of para-κ-casein formed at 24 h at 5 °C, sample B-lac 1B (0 h: 0) is 56.1 peak area; the “lab-on-a-chip κ-casein peak area 24 h after 80 °C/30 min treatment, sample B-lac 1A (start: 249.48)” value is “After 24 hours, the peak area was 115.2 and 35.82 for κ-casein and para-κ-casein, respectively”. Also, the “lab-on-a-chip κ-casein peak area 24 h after 120 °C/10 min treatment, sample B-lac 1A (start: 249.6)” value was “After 24 hours, the peak area was 179.4 and 16.12 for κ-casein and para-κ-casein, respectively”; the “lab-on-a-chip κ-casein peak area at 24 h at 5 °C, sample B-lac 1A (0 h: 255)” value is 91.5 (64% degraded); the “lab-on-a-chip κ-casein peak area at 24 h at 5 °C, sample B-lac 1B (0 h: 253.98)” value is 138.72 (46% degraded); the “microfluidic chip SDS-PAGE of skim milk with about 1% B-Lac 1A held 0, 24 or 48 hours at room temperature” value was “showed evidence of proteolysis on storage with a decrease in the band associated with k-casein, and a new peptide peak appearing”. For the same substance, the “κ-casein degraded 24 h after 80 °C/30 min treatment, sample B-lac 1A” value is given as “indicating that κ-casein had degraded by 54%”; the “κ-casein degraded 24 h after 120 °C/10 min treatment, sample B-lac 1A” value is given as “indicating that κ-casein had degraded by 72%”; the “κ-casein degraded after 24 h at 5 °C, sample B-lac 1A” value is listed as 91.5 (64% degraded); the “κ-casein degraded after 24 h at 5 °C, sample B-lac 1B” value was 138.72 (46% degraded).
